Data published in the supplement of paper PMC9112550, “Optimization of the antimicrobial peptide Bac7 by deep mutational scanning” (BMC Biology, 2022).

system: Escherichia coli TOP10; test: shrunken log2 fold change of peptide-encoding DNA abundance (4.5 h post-induction vs induction); higher = less antimicrobial activity (less host growth inhibition); settings: time post-induction: 4.5 h; library: site-saturation at positions 5, 18, 19, 20
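Further: peptides expressed intracellularly from a pBAD plasmid library in pooled LB shake-flask culture, induced with 0.3% L-arabinose, DNA abundance read by NGS, three biological replicates, DESeq2 with apeglm shrinkage.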

In order of falling “shrunken log2 fold change” value:
1. RRIRGRPPRLPRPRPRPTVHPRP  1.77
2. RRIRRRPPRLPRPRPRPEEAPRP  1.51
3. RRIRMRPPRLPRPRPRPAAVPRP  1.44
4. RRIRARPPRLPRPRPRPEWAPRP  1.06
5. RRIRWRPPRLPRPRPRPRMRPRP  1.03
6. RRIRMRPPRLPRPRPRPTHAPRP  0.995
7. RRIRFRPPRLPRPRPRPRGGPRP  0.9
8. RRIRKRPPRLPRPRPRPWPIPRP  0.891
9. RRIRFRPPRLPRPRPRPTRMPRP  0.762
10. RRIRARPPRLPRPRPRPPTAPRP  0.744
11. RRIRMRPPRLPRPRPRPPVTPRP  0.673
12. RRIRARPPRLPRPRPRPPNPPRP  0.662
13. RRIRHRPPRLPRPRPRPLRPPRP  0.639
14. RRIRDRPPRLPRPRPRPPTRPRP  0.596
15. RRIRRRPPRLPRPRPRPPEWPRP  0.539
16. RRIRGRPPRLPRPRPRPQMCPRP  0.522
17. RRIRGRPPRLPRPRPRPGWNPRP  0.486
18. RRIRQRPPRLPRPRPRPACWPRP  0.401
19. RRIRWRPPRLPRPRPRPWEAPRP  0.396
20. RRIRMRPPRLPRPRPRPSLQPRP  0.385
21. RRIRDRPPRLPRPRPRPVGMPRP  0.37
22. RRIRGRPPRLPRPRPRPDGVPRP  0.368
23. RRIRNRPPRLPRPRPRPLRMPRP  0.361
24. RRIRDRPPRLPRPRPRPLRHPRP  0.358
25. RRIRFRPPRLPRPRPRPPSCPRP  0.337
26. RRIRHRPPRLPRPRPRPGFPPRP  0.336
27. RRIRQRPPRLPRPRPRPGRGPRP  0.333
28. RRIRGRPPRLPRPRPRPKLVPRP  0.326
29. RRIRFRPPRLPRPRPRPSRMPRP  0.311
30. RRIRPRPPRLPRPRPRPRKNPRP  0.296
31. RRIRKRPPRLPRPRPRPDGTPRP  0.293
32. RRIRRRPPRLPRPRPRPNAQPRP  0.287
33. RRIRSRPPRLPRPRPRPKERPRP  0.265
34. RRIRPRPPRLPRPRPRPQPQPRP  0.26
35. RRIRFRPPRLPRPRPRPQPDPRP  0.254
36. RRIRRRPPRLPRPRPRPEDPPRP  0.192
37. RRIRCRPPRLPRPRPRPWLGPRP  0.188
38. RRIRQRPPRLPRPRPRPPMMPRP  0.154
39. RRIRSRPPRLPRPRPRPVWWPRP  0.131
40. RRIRVRPPRLPRPRPRPAHCPRP  0.122
41. RRIRDRPPRLPRPRPRPQRCPRP  0.121
42. RRIRPRPPRLPRPRPRPSQAPRP  0.106
43. RRIRARPPRLPRPRPRPRMYPRP  0.0922
44. RRIRQRPPRLPRPRPRPSGCPRP  0.0869
45. RRIRMRPPRLPRPRPRPNGAPRP  0.0765
46. RRIRVRPPRLPRPRPRPADFPRP  0.0696
47. RRIRDRPPRLPRPRPRPNMEPRP  0.0616
48. RRIRFRPPRLPRPRPRPETLPRP  0.0591
49. RRIRWRPPRLPRPRPRPWKSPRP  0.0574
50. RRIRWRPPRLPRPRPRPEVPPRP  0.0568
51. RRIRGRPPRLPRPRPRPQNKPRP  0.0435
52. RRIRMRPPRLPRPRPRPIDHPRP  0.0383
53. RRIRPRPPRLPRPRPRPCLPPRP  0.0296
54. RRIRKRPPRLPRPRPRPQYAPRP  0.0233
55. RRIRQRPPRLPRPRPRPMTCPRP  0.0215
56. RRIRLRPPRLPRPRPRPAHIPRP  0.0196
57. RRIRNRPPRLPRPRPRPGWTPRP  0.0174
58. RRIRKRPPRLPRPRPRPAVAPRP  0.0118
59. RRIRSRPPRLPRPRPRPEDGPRP  0.0117
60. RRIRQRPPRLPRPRPRPCKSPRP  0.00854
61. RRIRPRPPRLPRPRPRPIVKPRP  0.000733
62. RRIRMRPPRLPRPRPRPWLQPRP  -0.000921
63. RRIRERPPRLPRPRPRPWHVPRP  -0.0018
64. RRIRRRPPRLPRPRPRPNSKPRP  -0.00313
65. RRIRTRPPRLPRPRPRPHHGPRP  -0.0105
66. RRIRMRPPRLPRPRPRPIIVPRP  -0.0119
67. RRIRYRPPRLPRPRPRPCSPPRP  -0.0146
68. RRIRQRPPRLPRPRPRPLNSPRP  -0.0233
69. RRIRQRPPRLPRPRPRPVLRPRP  -0.027
70. RRIRARPPRLPRPRPRPWPLPRP  -0.0297
71. RRIRKRPPRLPRPRPRPSVYPRP  -0.0427
72. RRIRSRPPRLPRPRPRPVEDPRP  -0.0519
73. RRIRIRPPRLPRPRPRPWIGPRP  -0.0616
74. RRIRERPPRLPRPRPRPWMPPRP  -0.062
75. RRIRHRPPRLPRPRPRPCLAPRP  -0.0627
76. RRIRSRPPRLPRPRPRPCWIPRP  -0.0651
77. RRIRCRPPRLPRPRPRPSSFPRP  -0.0694
78. RRIRNRPPRLPRPRPRPAFLPRP  -0.0726
79. RRIRPRPPRLPRPRPRPMCNPRP  -0.075
80. RRIRIRPPRLPRPRPRPTLSPRP  -0.0751
81. RRIRWRPPRLPRPRPRPLFVPRP  -0.076
82. RRIRHRPPRLPRPRPRPRRLPRP  -0.0808
83. RRIRERPPRLPRPRPRPRMLPRP  -0.0942
84. RRIRIRPPRLPRPRPRPDMIPRP  -0.0965
85. RRIRNRPPRLPRPRPRPHICPRP  -0.0994
86. RRIRFRPPRLPRPRPRPTLLPRP  -0.0998
87. RRIRQRPPRLPRPRPRPITFPRP  -0.11
88. RRIRTRPPRLPRPRPRPDHKPRP  -0.117
89. RRIRSRPPRLPRPRPRPGFTPRP  -0.125
90. RRIRCRPPRLPRPRPRPVPFPRP  -0.132
91. RRIRYRPPRLPRPRPRPGCAPRP  -0.139
92. RRIRMRPPRLPRPRPRPYKWPRP  -0.141
93. RRIRIRPPRLPRPRPRPCPHPRP  -0.143
94. RRIRVRPPRLPRPRPRPNLIPRP  -0.149
95. RRIRARPPRLPRPRPRPDNNPRP  -0.154
96. RRIRVRPPRLPRPRPRPYHCPRP  -0.157
97. RRIRFRPPRLPRPRPRPHFVPRP  -0.176
98. RRIRLRPPRLPRPRPRPFGMPRP  -0.205
99. RRIRWRPPRLPRPRPRPHHRPRP  -0.214
100. RRIRIRPPRLPRPRPRPAKVPRP  -0.224
101. RRIRIRPPRLPRPRPRPYDKPRP  -0.224
102. RRIRNRPPRLPRPRPRPHTKPRP  -0.238
103. RRIRHRPPRLPRPRPRPLLHPRP  -0.238
104. RRIRPRPPRLPRPRPRPDSKPRP  -0.238
105. RRIRRRPPRLPRPRPRPWLTPRP  -0.245
106. RRIRERPPRLPRPRPRPWHDPRP  -0.251
107. RRIRYRPPRLPRPRPRPAEFPRP  -0.266
108. RRIRLRPPRLPRPRPRPGSIPRP  -0.301
109. RRIRDRPPRLPRPRPRPTHTPRP  -0.311
110. RRIRQRPPRLPRPRPRPYCEPRP  -0.327
111. RRIRTRPPRLPRPRPRPCMKPRP  -0.332
112. RRIRHRPPRLPRPRPRPLLTPRP  -0.338
113. RRIRIRPPRLPRPRPRPLHSPRP  -0.402
114. RRIRCRPPRLPRPRPRPFLMPRP  -0.422
115. RRIRFRPPRLPRPRPRPILKPRP  -0.43
116. RRIRRRPPRLPRPRPRPSMKPRP  -0.434
117. RRIRCRPPRLPRPRPRPCVKPRP  -0.439
118. RRIRSRPPRLPRPRPRPFIVPRP  -0.477
119. RRIRCRPPRLPRPRPRPFYPPRP  -0.511
120. RRIRERPPRLPRPRPRPIVLPRP  -0.579
121. RRIRSRPPRLPRPRPRPGKIPRP  -0.596
122. RRIRCRPPRLPRPRPRPFEQPRP  -0.669
123. RRIRFRPPRLPRPRPRPINQPRP  -0.694
124. RRIRDRPPRLPRPRPRPNHMPRP  -0.776
125. RRIRSRPPRLPRPRPRPHSAPRP  -0.891
